Drawing on PMC2746243, this text covers percent of the binding to wild-type α-tropomyosin (slow) for 1 substance.

This experiment concerns the target mutant M9R α-tropomyosin_(slow) (human) (UniProt P06753). Briefly: far-Western, overlay or dot blot.
Chain of UniProt P06753 (P06753 whole entry M9R): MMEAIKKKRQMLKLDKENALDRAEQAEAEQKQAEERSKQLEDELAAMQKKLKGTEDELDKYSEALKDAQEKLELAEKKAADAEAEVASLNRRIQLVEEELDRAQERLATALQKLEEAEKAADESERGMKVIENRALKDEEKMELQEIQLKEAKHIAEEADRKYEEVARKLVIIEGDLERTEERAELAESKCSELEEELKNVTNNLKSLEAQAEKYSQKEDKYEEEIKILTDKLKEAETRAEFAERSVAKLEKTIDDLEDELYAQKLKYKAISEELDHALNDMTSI

Consider “Recombinant human Tmod1 protein (from UniProt P28289 1-359) (natural protein)”, for which the percent of the binding to wild-type α-tropomyosin (slow) came to 10%.
